Measurements: publication PMC9986714

Tests used:
[1] = molecular target: Human cathepsin L (human)
[2] = molecular target: Fasciola hepatica cathepsin L2 (Fasciola hepatica)
[3] = molecular target: Cathepsin X (human) (UniProt Q9UBR2)
[4] = molecular target: Cathepsin F (human) (UniProt Q9UBX1)
[5] = molecular target: Cathepsin S (human) (UniProt P25774)
[6] = molecular target: Bovine cathepsin C (bovine)
[7] = molecular target: Bovine cathepsin H (bovine)
[8] = molecular target: Cathepsin B (human)
[9] = molecular target: Carica papaya papain (Carica papaya) (UniProt P00784)
Chain of Carica papaya papain (Carica papaya) (P00784 134-345): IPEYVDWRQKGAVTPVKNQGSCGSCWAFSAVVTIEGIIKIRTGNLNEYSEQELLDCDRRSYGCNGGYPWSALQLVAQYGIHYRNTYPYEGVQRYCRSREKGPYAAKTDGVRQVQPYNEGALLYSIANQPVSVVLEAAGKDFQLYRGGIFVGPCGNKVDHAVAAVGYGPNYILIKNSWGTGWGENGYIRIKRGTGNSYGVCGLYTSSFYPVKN

[10] = molecular target: Human cathepsin V (human) (UniProt O60911)
Chain of Human cathepsin V (human) (O60911 114-334): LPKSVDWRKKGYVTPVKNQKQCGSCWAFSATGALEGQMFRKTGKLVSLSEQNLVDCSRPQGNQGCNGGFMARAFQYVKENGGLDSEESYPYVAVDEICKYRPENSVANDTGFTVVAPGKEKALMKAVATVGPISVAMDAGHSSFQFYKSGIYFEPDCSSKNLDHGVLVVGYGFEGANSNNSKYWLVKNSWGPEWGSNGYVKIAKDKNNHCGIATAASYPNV

[11] = molecular target: Fasciola hepatica cathepsin L1 (Fasciola hepatica)
[12] = molecular target: Fasciola hepatica cathepsin L3 (Fasciola hepatica)
[13] = molecular target: Human cathepsin K (human) (UniProt P43235)
Chain of Human cathepsin K (human) (P43235 115-329): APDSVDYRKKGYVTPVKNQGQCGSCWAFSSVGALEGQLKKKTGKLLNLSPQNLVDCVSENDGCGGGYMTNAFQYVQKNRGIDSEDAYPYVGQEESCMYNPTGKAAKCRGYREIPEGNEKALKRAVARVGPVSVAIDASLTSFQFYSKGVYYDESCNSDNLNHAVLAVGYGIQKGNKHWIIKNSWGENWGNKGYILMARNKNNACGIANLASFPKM

Chain of Cathepsin F (human) (Q9UBX1 271-484): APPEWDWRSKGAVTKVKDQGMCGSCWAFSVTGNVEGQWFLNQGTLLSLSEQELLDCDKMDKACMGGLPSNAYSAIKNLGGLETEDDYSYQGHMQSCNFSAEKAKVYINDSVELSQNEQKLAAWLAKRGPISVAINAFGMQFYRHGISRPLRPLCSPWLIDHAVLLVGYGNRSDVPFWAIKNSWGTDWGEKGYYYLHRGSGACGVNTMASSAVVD
Chain of Cathepsin X (human) (Q9UBR2 62-303): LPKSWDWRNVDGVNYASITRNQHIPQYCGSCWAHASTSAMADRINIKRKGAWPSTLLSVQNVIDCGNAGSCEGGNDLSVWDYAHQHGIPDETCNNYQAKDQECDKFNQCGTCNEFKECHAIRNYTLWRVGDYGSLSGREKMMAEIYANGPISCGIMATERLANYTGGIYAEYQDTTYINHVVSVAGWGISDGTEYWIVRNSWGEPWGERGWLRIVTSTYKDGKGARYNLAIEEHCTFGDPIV
Chain of Cathepsin S (human) (P25774 115-331): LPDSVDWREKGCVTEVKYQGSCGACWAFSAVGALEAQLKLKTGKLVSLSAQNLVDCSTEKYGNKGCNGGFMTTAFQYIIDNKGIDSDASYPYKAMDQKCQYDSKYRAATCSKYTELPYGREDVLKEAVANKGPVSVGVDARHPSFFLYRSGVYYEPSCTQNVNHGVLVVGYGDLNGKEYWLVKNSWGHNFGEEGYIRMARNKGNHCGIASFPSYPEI

Substance: Fasciola hepatica cystatin-like stefin 2 (FhCyLS-2), recombinant (natural protein)
- IC50 of inhibition of protease activity (kinetic assay, 2.5 μM Z-Phe-Arg-AMC, 0.2 nM cathepsin L, 100 mM Na acetate pH 5.5, 37 °C, 15 min preincubation) [1]: 0.92 nM
- IC50 of inhibition of protease activity (kinetic assay, 20 μM Z-Phe-Arg-AMC, 5 nM FhCL2, 50 mM MES pH 6.0, 37 °C, 15 min preincubation) [2]: 10 nM
- IC50 of inhibition of protease activity (kinetic assay, 87 μM Abz-Phe-Arg-Phe(NO2)-OH, 1.2 nM cathepsin X, 100 mM Na acetate pH 5.0, 37 °C, 15 min preincubation) [3]: 8.4 µM
- IC50 of inhibition of protease activity (kinetic assay, 27 μM Z-Phe-Arg-AMC, 1.2 nM cathepsin F, 100 mM Na acetate pH 5.5, 37 °C, 15 min preincubation) [4]: 49 nM
- IC50 of inhibition of protease activity (kinetic assay, 17 μM Z-Val-Val-Arg-AMC, 0.1 nM cathepsin S, 50 mM MES pH 6.5, 37 °C, 15 min preincubation) [5]: 1.1 nM
- IC50 of inhibition of protease activity (kinetic assay, 130 μM H-Gly-Arg-AMC, 0.4 nM cathepsin C, 100 mM Na acetate pH 5.5 with 50 mM NaCl, 37 °C, 15 min preincubation) [6]: 66 nM
- IC50 of inhibition of protease activity (kinetic assay, 100 μM H-Arg-AMC, 1.9 nM cathepsin H, 50 mM MES pH 6.5, 37 °C, 15 min preincubation) [7]: 2.5 nM
- IC50 of inhibition of protease activity (kinetic assay, 53 μM Z-Phe-Arg-AMC, 0.2 nM cathepsin B, 100 mM Na acetate pH 5.5, 37 °C, 15 min preincubation) [8]: 2.1 nM
- IC50 of inhibition of protease activity (kinetic assay, 100 μM Z-Phe-Arg-AMC, 0.5 nM papain, 100 mM Na acetate pH 5.5, 37 °C, 15 min preincubation) [9]: 1.1 nM
- IC50 of inhibition of protease activity (kinetic assay, 3.6 μM Z-Phe-Arg-AMC, 0.1 nM cathepsin V, 100 mM Na acetate pH 5.5, 37 °C, 15 min preincubation) [10]: 5.9 nM
- IC50 of inhibition of protease activity (kinetic assay, 20 μM Z-Phe-Arg-AMC, 2 nM FhCL1, 50 mM MES pH 5.5, 37 °C, 15 min preincubation) [11]: 2.5 nM
- IC50 of inhibition of protease activity (kinetic assay, 20 μM Z-Gly-Pro-Arg-AMC, 6 nM FhCL3, 50 mM MES pH 5.5, 37 °C, 15 min preincubation) [12]: 18 nM
- IC50 of inhibition of protease activity (kinetic assay, 4.3 μM Z-Phe-Arg-AMC, 0.2 nM cathepsin K, 100 mM Na acetate pH 5.5, 37 °C, 15 min preincubation) [13]: 8.6 nM
